Results reported in patent publication US7271245B2, “Methods and compositions for inhibition of metastasis” (The Scripps Research Institute, priority 2004, dated 2007).

What was measured:
[1] = test system: Integrin αIIβ3 mediated adhesive platelet functions; test: Platelet adhesion and thrombus formation during blood perfusion; type: cell-based, human; settings: 3 μM scFv
Procedure: Tumor cell arrest during bloodflow. Breast cancer cell arrest during blood flow and interaction with platelets was measured as described. Felding-Habermann, et al., Proc. Natl. Acad. Sci. U.S.A 98: 1853-1858, 2001. Felding-Habermann et al., J. Biol. Chem. 271: 5892-5900, 1996. Briefly, tumor cells were suspended in human blood anticoagulated with 50 nM PPACK and perfused over a collagen I matrix at a venous wall shear rate of 50 s^−1, 2 dynes/cm^2. Adhesive events and cell interactions were visualized and recorded by fluorescence video microscopy and quantified by image acquisition at 30 predefined positions followed by computerized image analysis (MetaMorph, Universal Imaging). Tumor cells were stained with hydroethidine (red fluorescence) (20 μg/ml, 30 min, 37° C.), washed, and mixed with blood containing 10 μM mepacrine (green fluorescence). Blood cells, tumor cells, and platelets acquired green fluorescence and were visualized at 488/515 nm (excitation/emission). Tumor cells were identified by their unique red fluorescence at 543/590 nm. To test inhibition, tumor cells were incubated with 3 μM scFv for 5 min at 37° C., then mixed into blood, scFv added to 3 μM final concentration and perfused immediately.
In the circulation, metastatic tumor cells are intensely exposed to a cancer patient's immune surveillance, encountering potential function blocking antibodies like Bc-12 and Bc-15. […]

[2] = test system: BMS human breast cancer cells; test: Experimental metastasis in vivo (lung colonization); set-up: species or system mouse
Procedure: FIGS. 5A, 5B, 5C. ScFvs Bc-12 and Bc-15 prevent hematogenous breast cancer metastasis. (A) Left: Lungs of female SCID mice 32 days after i.v. injection with 1×10^5 BMS human breast cancer cells. The mice were treated with 50 μg Bc-12 or Bc-15 in 100 μl PBS (i.v.) on days 1, 2, 3 and 4. Controls received PBS only. Right: Numbers of lung surface metastases for each animal, horizontal lines indicate the median number of metastases per group. […] (B) Left: Histological sections of the above mouse lungs, stained with hematoxylin/eosin. Metastases were counted in six sets of three consecutive sections separated by 140 μm for each lung. Right: Number of metastases counted in sections of individual lungs, horizontal lines indicate median number of metastases per animal group. […] (C) Effect of Bc-15 treatment on established breast cancer metastasis in the lungs. Female SCID mice were injected i.v. with 5×10^5 DsRed2-tagged MDA-MB 435 breast cancer cells expressing constitutively activated integrin αvβ3D723R. Mice were treated on day 7, 9, 11 and 14, 16, 18 by i.v. injections of scFv Bc-15 or its RGE mutant, Mut-15 (40 μg/dose). Metastatic foci were enumerated by fluorescence microscopy on day 19. Left: Images of typical tumor foci within the lung tissue in Mut-15 (top) or Bc-15 treated mice (bottom) (bar: 50 μm). Right: Number of metastatic foci within the lung tissue of each animal, horizontal line: median number of metastases per group.
Experimental metastasis in vivo. 1×10^5 BMS human metastatic breast cancer cells were injected into the lateral tail veins of 9 week old female C.B17/lcrTac-Prkdc scid mice (Taconic Farms) (n=8 to 10) together with a 50 μg bolus dose of scFv. I.v. Injections of 50 μg scFv bolus doses were repeated on days 2, 3 and 4 of the experiment. Control animals received vehicle only (PBS). For in vivo use, endotoxin was removed from scFv preparations on Detoxy-Gel resin (Pierce). Remaining traces ranged from 0.001 to 0.07 EU endotoxin/mg scFv (LAL test, Bio Whittaker). On day 32, mice were euthanized, dissected, the lungs excised, fixed in Bouin's solution, and metastatic foci counted at the lung surface under a dissecting microscope. The same lungs were embedded in paraffin, and 10 μm sections were cut and stained with hematoxylin/eosin. Per lung, 7 sets of three consecutive sections were collected, separated by 140 μm. The sections were randomized and coded, and the total number of metastatic foci counted.
To test directly whether targeting activated integrin αvβ3 with the ligand mimetic antibodies Bc-12 and-15 affects target organ colonization by circulating metastatic breast cancer cells, 1×10^5 BMS human breast cancer cells were injected intravenously into female C.B-17 SCID mice, together with 50 μg sterile, endotoxin free preparations of Bc-12 or Bc-15 (n=8-10 mice per group). At an average blood volume of 2 ml per mouse, this provides an initial scFv concentration of 1 μM. The clearance time for scFv antibody fragments in the circulation is less than 1 h. Kortt et al., Biomol. Eng, 18: 95-108, 2001. Tumor cells may remain in the circulation for several days. Therefore, scFv antibody injections (50 μg bolus doses, i.v.) were repeated on the second, third and fourth day. […] After 32 days, the mice were euthanized, dissected and analyzed by gross examination. […] The lungs were excised, fixed, and metastatic foci counted at the lung surface. Each of the control treated mice had tumor foci on their lungs (range: 8 to 68 foci per lung). In stark contrast, only two animals in the Bc-12 treated group, and 1 animal in the Bc-15 treated group had one visible nodule at their lung surface (FIG. 5A).
Per lung, six sets of three consecutive sections, separated by 140 μm, were collected. The sections were randomized and coded, and the total number of metastatic foci counted. All control animals had metastases in their lung tissues (range: 7 to 48 counts per lung), and those were of considerable size (FIG. 5B top image). […]

B1: Bc-12: patient derived human scFv antibody against activated αvβ3 with RGD motif in CDR-H3; cDNA ATCC PTA-6303 (protein)
scFv: MAQVQLVQSGAEVKKPGASVKVSCKASGYTFSNYGITWVRQAPGQGLEWMGWINNGNTHYAQKFQGRVTMTTDTSTSTAYMELRSLRSDDTAVYYCARDPRGDDEPYWGQGTLVTVSSGGGGSGGGGSGGGGSEIVLTQSPLSLPVTLGQPASISCRSSQNLVYSDGNTYLSWFQQRPGQSPRRLIYKVSNRDSGVPDRFSGSGSGTDFTLKISRVEAEDIGVYYCMQGTHWPPRTFGQGTKVEIKRGLGGLVDYKDDDDK
adhesive platelet functions [1]: not affected
health status during the experiment ([2]; 50 μg i.v. days 1-4, 32 days): appeared healthy
number of lung surface metastases versus PBS control ([2]; 50 μg i.v. days 1-4, day 32, P<0.001 Kruskal Wallis): significantly fewer metastases
number of metastases in lung sections versus PBS control ([2]; P<0.005 Kruskal Wallis): significantly fewer detectable metastases
animals with one visible nodule at lung surface ([2]; SCID mice, 50 μg i.v. days 1-4, day 32, n=8-10 per group, controls 8 to 68 foci per lung): two
gross examination at dissection ([2]; day 32): No obvious abnormalities
mice with microscopically detectable metastases in lung tissue ([2]; histological sections, day 32, all controls positive): 3 of 10
